For 3 molecules, binding result and binding signal results are on record in publication PMC11870197.

Holding throughout (experiment): EMSA
Series [1] has as its target T1, 6xHis-PhoP (Lacticaseibacillus paracasei BL23, UniProt Q03AN9 1-235).
T1 sequence: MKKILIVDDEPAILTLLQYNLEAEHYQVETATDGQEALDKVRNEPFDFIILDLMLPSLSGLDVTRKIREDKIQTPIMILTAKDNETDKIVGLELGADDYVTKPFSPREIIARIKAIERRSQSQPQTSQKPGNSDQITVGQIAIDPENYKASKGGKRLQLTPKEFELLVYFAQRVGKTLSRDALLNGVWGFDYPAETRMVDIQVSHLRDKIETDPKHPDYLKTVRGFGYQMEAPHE

Series [2] deals with T2, 6xHis-PhoP~P (Lacticaseibacillus paracasei BL23, UniProt Q03AN9 1-235).
T2 sequence: T1 sequence

In series [3] the target is T2, 6xHis-PhoP~P. The source holds these as a separate data set.

B1: poxL promoter fragment (dsDNA)
DNA 1: TTGATCCATGATCCTGATCATCATTAAGTTAATTTGTGAAAAAGGTTTACCAAGCATGTTATGGCGTGGTGATGCTGTATTAGTTCACTTGTTTGACTGTTATGGTGTCGTCG
DNA 2: CGACGACACCATAACAGTCAAACAAGTGAACTAATACAGCATCACCACGCCATAACATGCTTGGTAAACCTTTTTCACAAATTAACTTAATGATGATCAGGATCATGGATCAA
For B1, the binding result in series [1] and in series [2] was “no binding” each time.

B2: ackA promoter fragment (dsDNA)
DNA 1: GATTCGCCGAAAACCAAGAAAAAGTCATGATGCTGTGCGATTACGTGTGCGGCAATCCGACTACCCGTTTAGAGGAGGAAAAAAACAATGGCAAAAATTCTCGCAGTCAACGCAGGCAGTTC
DNA 2: GAACTGCCTGCGTTGACTGCGAGAATTTTTGCCATTGTTTTTTTCCTCCTCTAAACGGGTAGTCGGATTGCCGCACACGTAATCGCACAGCATCATGACTTTTTCTTGGTTTTCGGCGAATC
With B2, the binding result in series [1] and in series [2] was “no binding” in each case.

B3: glnA promoter fragment (dsDNA)
DNA 1: TGCCAAATTAGTGACGCTATTTGCAAATTCCCCCGCGACAATTTTTAGACAATCTTTCCTTTTATTTAAAATCATGTAACATTAGGGCCGAACGATACATATGTAACGGTGTTTTTTAACC
DNA 2: GGTTAAAAAACACCGTTACATATGTATCGTTCGGCCCTAATGTTACATGATTTTAAATAAAAGGAAAGATTGTCTAAAAATTGTCGCGGGGGAATTTGCAAATAGCGTCACTAATTTGGCA
For the molecule B3, in series [3], the binding signal is ~10 fold more PhoP required than for pstS or phnD.
